# Test results taken from the supplement of paper PMC10065799, “High-throughput profiling of sequence recognition by tyrosine kinases and SH2 domains using bacterial peptide display” (eLife, 2023).
# Legend:
# Grb2 SH2 = Grb2 SH2 (UniProt P62993); assay: SH2 binding enrichment of the phosphorylated peptide, bacterial display (enrichment ratio); higher = better substrate or ligand; peptides without Tyr show the background
# SHP2-C SH2 = assay: as above
# c-Src SH2 = assay: as above
# Fer (mouse) = assay: phosphorylation enrichment, bacterial display (enrichment ratio); higher = better substrate or ligand; peptides without Tyr show the background
# EPHB1 = EPHB1 (UniProt P54762); assay: as above
# FGFR3 = FGFR3 (UniProt P22607); assay: as above
# Jak2 = Jak2 (UniProt O60674); assay: as above
# Fes = Fes (UniProt P07332); assay: as above
# c-Src = assay: as above
# c-Abl (mouse) = assay: as above
# Fyn = Fyn (UniProt P06241); assay: as above
# FGFR1 = FGFR1 (UniProt P11362); assay: as above
# EPHB2 = EPHB2 (UniProt P29323); assay: as above
# AncSZ = assay: as above
# MERTK = MERTK (UniProt Q12866); assay: as above
# Hck = Hck (UniProt P08631); assay: as above
# 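Wherever SH2 binding enrichment of the phosphorylated peptide, bacterial display is given: peptide library displayed on the E. coli surface as eCPX fusions, selected cells deep-sequenced, score is each peptide's frequency after selection divided by its frequency in the input.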
# 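Wherever phosphorylation enrichment, bacterial display is given: 11-residue human phosphosite peptides and single-mutation variants displayed on the E. coli surface, counted by deep sequencing, each peptide's frequency after selection divided by its frequency in the unselected input library; frequency after pTyr selection over input frequency; kinase dosed for 20-30% of maximal phosphorylation in three min.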
# Chain of FGFR3 (P22607 whole entry, looked up): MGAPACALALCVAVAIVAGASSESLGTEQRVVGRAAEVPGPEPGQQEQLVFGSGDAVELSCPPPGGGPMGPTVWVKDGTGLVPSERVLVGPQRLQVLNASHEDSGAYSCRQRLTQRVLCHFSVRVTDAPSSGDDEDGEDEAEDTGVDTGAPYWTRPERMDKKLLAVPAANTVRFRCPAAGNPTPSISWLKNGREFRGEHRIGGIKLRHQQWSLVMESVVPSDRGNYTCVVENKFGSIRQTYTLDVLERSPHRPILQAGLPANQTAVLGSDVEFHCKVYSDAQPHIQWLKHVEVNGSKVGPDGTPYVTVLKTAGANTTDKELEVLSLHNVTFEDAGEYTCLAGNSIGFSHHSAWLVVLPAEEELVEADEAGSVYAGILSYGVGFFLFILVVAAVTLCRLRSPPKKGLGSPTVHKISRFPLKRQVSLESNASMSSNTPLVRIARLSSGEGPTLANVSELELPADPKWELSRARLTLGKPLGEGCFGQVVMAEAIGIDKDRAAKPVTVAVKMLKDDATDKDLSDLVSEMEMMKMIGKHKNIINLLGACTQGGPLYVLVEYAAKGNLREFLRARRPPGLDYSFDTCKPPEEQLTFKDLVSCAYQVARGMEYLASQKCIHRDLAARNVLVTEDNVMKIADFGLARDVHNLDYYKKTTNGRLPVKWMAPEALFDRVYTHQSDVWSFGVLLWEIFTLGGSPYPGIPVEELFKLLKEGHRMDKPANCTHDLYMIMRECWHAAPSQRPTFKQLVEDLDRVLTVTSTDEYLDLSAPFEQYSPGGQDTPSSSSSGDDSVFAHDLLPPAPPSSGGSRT
# Chain of Fes (P07332 whole entry, looked up): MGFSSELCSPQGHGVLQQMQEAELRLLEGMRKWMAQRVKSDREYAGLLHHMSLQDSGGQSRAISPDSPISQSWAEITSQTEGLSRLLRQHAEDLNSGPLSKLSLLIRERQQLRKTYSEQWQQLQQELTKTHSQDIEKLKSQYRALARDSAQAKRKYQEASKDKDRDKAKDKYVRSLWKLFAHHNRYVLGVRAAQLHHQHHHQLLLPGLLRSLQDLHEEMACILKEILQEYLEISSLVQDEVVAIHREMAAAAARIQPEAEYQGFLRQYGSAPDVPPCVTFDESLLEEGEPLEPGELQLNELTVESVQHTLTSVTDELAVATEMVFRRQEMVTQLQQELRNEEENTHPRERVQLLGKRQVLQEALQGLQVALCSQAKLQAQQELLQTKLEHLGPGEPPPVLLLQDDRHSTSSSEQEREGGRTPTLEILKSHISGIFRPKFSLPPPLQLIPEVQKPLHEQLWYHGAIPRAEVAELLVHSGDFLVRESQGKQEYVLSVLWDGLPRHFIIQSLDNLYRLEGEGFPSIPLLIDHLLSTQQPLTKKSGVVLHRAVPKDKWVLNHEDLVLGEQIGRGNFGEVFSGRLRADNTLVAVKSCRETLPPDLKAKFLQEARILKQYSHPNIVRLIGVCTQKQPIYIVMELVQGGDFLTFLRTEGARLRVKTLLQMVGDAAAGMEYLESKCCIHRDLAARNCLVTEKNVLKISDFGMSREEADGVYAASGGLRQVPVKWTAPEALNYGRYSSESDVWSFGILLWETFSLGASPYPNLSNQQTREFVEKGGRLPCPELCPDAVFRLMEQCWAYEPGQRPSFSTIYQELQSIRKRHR
# Chain of MERTK (Q12866 whole entry, looked up): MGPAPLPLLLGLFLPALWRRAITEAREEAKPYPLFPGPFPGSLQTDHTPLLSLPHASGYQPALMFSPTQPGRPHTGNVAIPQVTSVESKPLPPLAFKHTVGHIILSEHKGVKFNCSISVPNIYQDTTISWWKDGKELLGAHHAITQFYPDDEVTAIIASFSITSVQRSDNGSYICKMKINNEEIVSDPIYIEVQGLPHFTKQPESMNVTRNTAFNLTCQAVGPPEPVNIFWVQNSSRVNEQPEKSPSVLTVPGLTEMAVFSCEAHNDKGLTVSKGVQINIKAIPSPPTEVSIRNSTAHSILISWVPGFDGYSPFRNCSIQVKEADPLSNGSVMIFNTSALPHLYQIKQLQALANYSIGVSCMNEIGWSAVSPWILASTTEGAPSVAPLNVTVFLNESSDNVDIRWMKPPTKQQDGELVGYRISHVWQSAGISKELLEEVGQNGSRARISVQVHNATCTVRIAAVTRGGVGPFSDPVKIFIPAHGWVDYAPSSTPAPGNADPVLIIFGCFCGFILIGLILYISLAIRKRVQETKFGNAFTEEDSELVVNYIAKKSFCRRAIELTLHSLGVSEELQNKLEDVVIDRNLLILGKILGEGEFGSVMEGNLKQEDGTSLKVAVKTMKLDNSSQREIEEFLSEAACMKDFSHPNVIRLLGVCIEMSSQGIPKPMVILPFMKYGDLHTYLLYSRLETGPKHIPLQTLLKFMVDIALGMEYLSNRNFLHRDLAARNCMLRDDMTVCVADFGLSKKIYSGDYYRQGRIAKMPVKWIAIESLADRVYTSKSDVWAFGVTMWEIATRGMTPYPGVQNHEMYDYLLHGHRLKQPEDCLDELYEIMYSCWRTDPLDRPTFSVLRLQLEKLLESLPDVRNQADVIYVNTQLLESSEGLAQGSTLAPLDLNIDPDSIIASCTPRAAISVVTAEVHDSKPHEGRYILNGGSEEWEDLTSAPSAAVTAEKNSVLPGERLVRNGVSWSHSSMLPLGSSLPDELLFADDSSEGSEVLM
# Chain of EPHB2 (P29323 whole entry, looked up): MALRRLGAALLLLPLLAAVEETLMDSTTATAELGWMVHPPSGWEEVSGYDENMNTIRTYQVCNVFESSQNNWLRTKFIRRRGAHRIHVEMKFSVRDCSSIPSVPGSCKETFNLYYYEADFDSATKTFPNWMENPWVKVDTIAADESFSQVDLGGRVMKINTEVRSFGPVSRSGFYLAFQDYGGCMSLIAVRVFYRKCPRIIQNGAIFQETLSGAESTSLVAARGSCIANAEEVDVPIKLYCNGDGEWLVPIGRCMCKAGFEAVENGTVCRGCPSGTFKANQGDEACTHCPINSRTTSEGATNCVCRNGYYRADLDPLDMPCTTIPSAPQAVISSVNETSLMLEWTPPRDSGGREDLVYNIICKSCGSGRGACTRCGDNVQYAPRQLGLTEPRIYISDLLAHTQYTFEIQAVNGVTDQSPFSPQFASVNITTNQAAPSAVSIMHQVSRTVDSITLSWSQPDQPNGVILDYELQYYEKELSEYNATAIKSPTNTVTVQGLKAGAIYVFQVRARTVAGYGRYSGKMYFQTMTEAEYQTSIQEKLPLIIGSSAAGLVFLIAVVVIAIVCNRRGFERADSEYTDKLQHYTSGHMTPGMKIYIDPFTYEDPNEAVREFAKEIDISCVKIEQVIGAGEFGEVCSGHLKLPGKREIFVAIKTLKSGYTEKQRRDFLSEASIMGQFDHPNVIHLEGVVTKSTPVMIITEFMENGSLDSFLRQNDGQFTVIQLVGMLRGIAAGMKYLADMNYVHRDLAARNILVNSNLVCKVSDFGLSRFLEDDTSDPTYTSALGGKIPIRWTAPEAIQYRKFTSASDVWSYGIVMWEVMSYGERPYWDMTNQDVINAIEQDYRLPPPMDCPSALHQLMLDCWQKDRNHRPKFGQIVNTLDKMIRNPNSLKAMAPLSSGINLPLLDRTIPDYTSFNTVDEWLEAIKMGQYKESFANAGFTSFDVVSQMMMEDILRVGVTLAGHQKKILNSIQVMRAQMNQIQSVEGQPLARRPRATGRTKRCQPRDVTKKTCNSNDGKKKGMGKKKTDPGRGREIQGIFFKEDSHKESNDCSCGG
# Chain of Fyn (P06241 whole entry, looked up): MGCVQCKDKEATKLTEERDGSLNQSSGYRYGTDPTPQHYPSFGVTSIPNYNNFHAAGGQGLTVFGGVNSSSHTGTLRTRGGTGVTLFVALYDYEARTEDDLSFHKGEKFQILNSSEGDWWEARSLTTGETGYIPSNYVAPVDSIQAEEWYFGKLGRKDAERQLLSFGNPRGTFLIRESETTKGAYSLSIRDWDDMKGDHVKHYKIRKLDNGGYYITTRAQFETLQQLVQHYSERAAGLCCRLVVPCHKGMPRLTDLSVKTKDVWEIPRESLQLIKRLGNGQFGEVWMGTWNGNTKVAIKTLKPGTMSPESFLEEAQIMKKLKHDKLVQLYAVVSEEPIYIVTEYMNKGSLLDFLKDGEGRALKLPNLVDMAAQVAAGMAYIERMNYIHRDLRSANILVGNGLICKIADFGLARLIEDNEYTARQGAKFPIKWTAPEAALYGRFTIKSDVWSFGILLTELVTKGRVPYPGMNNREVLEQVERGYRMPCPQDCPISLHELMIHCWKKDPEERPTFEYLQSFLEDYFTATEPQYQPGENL
# Chain of Hck (P08631 whole entry, looked up, the tested form may be a part): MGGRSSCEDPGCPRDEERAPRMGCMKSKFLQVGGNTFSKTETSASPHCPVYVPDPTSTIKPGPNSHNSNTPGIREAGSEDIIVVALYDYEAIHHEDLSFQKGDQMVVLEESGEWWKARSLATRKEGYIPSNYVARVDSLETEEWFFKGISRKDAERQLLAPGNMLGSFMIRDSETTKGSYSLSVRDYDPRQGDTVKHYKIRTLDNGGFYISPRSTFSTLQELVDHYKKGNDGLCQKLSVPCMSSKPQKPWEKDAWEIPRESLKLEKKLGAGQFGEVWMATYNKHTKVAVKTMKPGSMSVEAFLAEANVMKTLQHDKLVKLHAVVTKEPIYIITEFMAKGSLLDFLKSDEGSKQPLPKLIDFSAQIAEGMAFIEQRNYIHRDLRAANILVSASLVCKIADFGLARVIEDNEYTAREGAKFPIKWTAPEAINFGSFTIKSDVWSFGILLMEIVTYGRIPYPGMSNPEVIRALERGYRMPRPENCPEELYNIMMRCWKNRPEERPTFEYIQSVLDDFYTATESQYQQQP
# Chain of Grb2 SH2 (P62993 whole entry, looked up): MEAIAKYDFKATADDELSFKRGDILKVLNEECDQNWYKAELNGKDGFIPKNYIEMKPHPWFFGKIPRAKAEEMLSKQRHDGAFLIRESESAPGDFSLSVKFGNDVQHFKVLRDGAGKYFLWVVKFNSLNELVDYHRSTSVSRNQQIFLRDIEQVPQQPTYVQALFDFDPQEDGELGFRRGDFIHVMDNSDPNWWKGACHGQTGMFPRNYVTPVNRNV
Sequence,SH2 binding enrichment (Grb2 SH2),SH2 binding enrichment (SHP2-C SH2),SH2 binding enrichment (c-Src SH2),phosphorylation enrichment (Fer (mouse)),phosphorylation enrichment (EPHB1),phosphorylation enrichment (FGFR3),phosphorylation enrichment (Jak2),phosphorylation enrichment (Fes),phosphorylation enrichment (c-Src),phosphorylation enrichment (c-Abl (mouse)),phosphorylation enrichment (Fyn),phosphorylation enrichment (FGFR1),phosphorylation enrichment (EPHB2),phosphorylation enrichment (AncSZ),phosphorylation enrichment (MERTK),phosphorylation enrichment (Hck)
LPPGTYPSDFT [UNC5B_Y511_A516T],0.885,0.533,0.445,0.403,0.694,0.85,0.571,1.25,0.697,1.78,0.82,0.717,0.536,1.58,1.04,0.613
LFHENYNAGTY [CFI_Y421_I416L],0.9,0.818,0.704,0.822,0.521,0.633,0.976,1.1,1.3,1.22,0.605,0.78,0.626,1.06,0.537,0.527
SIKGKYVTALY [KCNH2_Y611_D609G],0.826,0.776,0.472,0.329,0.366,0.357,0.431,0.552,0.318,0.517,0.432,0.367,0.374,0.498,0.358,0.465
PANTVYSTVEI [SLAMF7_Y304],0.925,5.85,1.26,23.3,2.2,1.29,1.47,2.16,7.87,6.76,10.2,1.43,1.83,1.59,7.46,9.13
GGYTCYCDGKK [PROS1_Y266],0.766,0.79,0.549,0.484,0.537,0.728,1.2,1.38,0.499,0.915,0.403,0.457,0.474,0.985,0.439,0.462
EAEPYYCSLRD [NPHS1_Y1139_R1140C],0.931,0.908,1.91,1.85,1.17,1.31,1.33,1.43,4.11,1.62,3.37,1.34,1.21,1.78,2.28,2.94
IHFAIYFLKFS [ARMC9_Y107_L108F_YF],1.93,1.86,1.12,0.485,0.473,0.674,0.636,0.956,0.434,0.636,0.448,0.441,0.576,0.835,0.406,0.561
TEIGQYGNGLK [MORC2_Y100_Q96E],0.662,0.432,0.51,0.394,0.543,0.499,0.588,0.579,0.331,0.556,0.393,0.404,0.434,0.522,0.354,0.448
